Measured values reported in article PMC10570040.

Legend:
[1] = molecular target: T1, EnfR wild-type (TON_1525) (Thermococcus onnurineus NA1) (UniProt B6YTS4); assay: DNase I footprinting; details: EMSA: 10 mM Tris pH 7.4, 200 mM KCl, 2 mM DTT, 0.2 mM EDTA, 37 C 20 min, ITC: 10 mM Tris-HCl pH 7.4, 200 mM KCl, 1 mM TCEP, 25 C, footprint: 20 mM …
T1 sequence: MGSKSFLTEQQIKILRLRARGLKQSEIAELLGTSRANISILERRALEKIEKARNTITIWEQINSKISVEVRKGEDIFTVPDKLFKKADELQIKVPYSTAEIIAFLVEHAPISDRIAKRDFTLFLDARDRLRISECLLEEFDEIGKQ

[2] = molecular target: T1, EnfR wild-type (TON_1525) (Thermococcus onnurineus NA1); assay: EMSA; details: EMSA: 10 mM Tris pH 7.4, 200 mM KCl, 2 mM DTT, 0.2 mM EDTA, 37 C 20 min, ITC: 10 mM Tris-HCl pH 7.4, 200 mM KCl, 1 mM TCEP, 25 C, footprint: 20 mM …

For “GAGAGTTTTACTGTCTCTAAATGAAAGGTTCTAATACGGTGGATCGAATAATTTCTTGCGTTTTTATCCGGATCGCCGAACACGATTCCATCTTAAAATCTTTTTGTTTACATTATACGAGGTGATCAACAATGCCAGCTTTTTCCGGTT (double strand) [150-bp codh promoter probe]”, the binding [1] was “binds”.
“AACAGGGTGTTACATACTTTTATTTTCAATTCTAAGCTTCAAAAAACTCTTTTAAAAGTGAACATCCAATTAGGTTTGGGAAATGGTAAACAAAATTGTAAAAGGGTGTTTTGAACCAAACGTGGGGTGATAGAAAGATGGCATTTAT (double strand) [P1582]” was tested, and the binding [2] was “binds”.
